assay: soluble on expression in E. coli; label from the status in PepcDB or PDB records

| Sequence | soluble on expression in E. coli |
| --- | --- |
| MSLKAPGALRLLCFSDTHEKHLKIPPHQIVPCDICICAGDFTKFGDPAEVKKFKDWFIKIPARYRVLIAGNHETTFDVERYGRMVTQMRKIKSDLPRETAKSIVQTDGIIYLENESVEIEGLKIYGSPQTHYWEFWAFYYPDKDGPKVWAKIPHDTDILVCHTCPRSTIDLMRGQHVGCKSLANAIKEVQPSLVIYGHLHEGYGVAKIGKSVIANVSLTNLARKLANRPMIFDVSFKTPEIPRPLPKQPEETEIPKDEGHHHHHH | soluble |
| MGSDKIHHHHHHMDNYEGSDPWNTSSNAWTKDDDHVVSTTNSEPSLNGISGEFNTLNFSTPLDTNEEDTGFLPTNDVLEESIWDDSRNPLGATGMSQTPNIAANETVIDKNDARDQNIEESEADLLDWTNNVRKTYRPLDADIIIIEEIPEREGLLFKHANYLVKHLIALPSTSPSEERTVVRRYSDFLWLREILLKRYPFRMIPELPPKRIGSQNADQLFLKKRRIGLSRFINLVMKHPKLSNDDLVLTFLTVRTDLTSWRKQATYDTSNEFADKKISQEFMKMWKKEFAEQWNQAASCIDTSMELWYRITLLLERHEKRIMQMVHERNFFETLVDNFSEVTPKLYPVQQNDTILDINNNLSIIKKHLETTSSICKQETEEISGTLSPKFKIFTDILLSLRSLFERYKIMAANNVVELQRHVELNKEKLESMKGKPDVSGAEYDRIKKIIQKDRRSIIEQSNRAWLIRQCILEEFTIFQETQFLITRAFQDWAKLNSNHAGLKLNEWEKLVTSIMDMPISRE | not soluble |
| MSIDMHCHLDLYPRPDLVAEESKRRGTYILSVTTTPKAWHGTSLLAKESQRIRTALGLHPQIAHQRSHELDLFDSLLSETKYVGEIGLDGGQGFKEHWDIQLKVFRHILNSVNRAGGKIMTIHSRGSASAVLDEIENIDGVAILHWFTGTPKQLERAIDLGCWFSVGPAMLDTIKGKALVLKIPKSRILTETDGPFAKFRNDPLMPWDSGIAEKQLAALWGISQMEVNAQLVDNFKVLCTS | soluble |
| MIKTLKEHTKIVRSVTFSPNGKYLAVGDICGTVEIWRVL | soluble |
| MGSDKIHHHHHHMSTQYWEEEIEIMSREKLQELQLQRLKKTINIAANSPYYKEVFSKNGITGDSIQSLDDIRKIPFTTKSDMRANYPFGLVAGDMKRDGVRIHSSSGTTGNPTVIVHSQHDLDSWANLVARCLYMVGIRKTDVFQNSSGYGMFTGGLGFQYGAERLGCLTVPAAAGNSKRQIKFISDFKTTALHAIPSYAIRLAEVFQEEGIDPRETTLKTLVIGAEPHTDEQRRKIERMLNVKAYNSFGMTEMNGPGVAFECQEQNGMHFWEDCYLVEIIDPETGEPVPEGEIGELVLTTLDREMMPLIRYRTRDLTRILPGKCPCGRTHLRIDRIKGRSDDMFIIKGVNIFPMQVEKILVQFPELGSNYLITLETVNNQDEMIVEVELSDLSTDNYIELEKIRRDIIRQLKDEILVTPKVKLVKKGSLPQSEGKAVRVKDLRDNK | not soluble |
| MKRVLIVGATGTIGGVVRQTLLNETDNQLTLFARSANRLKTSERESVIAGDVTKDSDLDKAIAGQDVVFVALSGSLGRFAQKIVAAMDRNKVSRLLFITSMGIYDEIPASVGASGNLSSNPMLRTYREAADVVEASDLNYTLIRPGWFTGGPVDYEITKKGEPFGGHDVSINSIADFVKNAIVDNDYYAHDSVGLNAK | not soluble |
| MSLEAAPAGSGPLRRTFLVPEIKSLDQYDFSRAKAAASLAWVLRAAFGGAEHVPPELWEPFYTDQYAQEHVKPPVTRLLLSAELYCRAWRQALPQLEPSPSPSALLALLARRGTVPSLPEHPVREADLKHQPILMGAHLAVIDALMVAFSFEWTKTLPGPLALSSLEHKLLFWVDTTVRRLQEKTEQEAAQRASPAAPLDGASEGHHHHHH | not soluble |
| SLLAMPSAISVAVLPDSPHAREMATKAHNSGHEVLIHLPMAPLSKQPLEKNTLRPEMSSDEIERIIRSAVNNVPYAVGINNHMGSKMTSNLFGMQKVMQALERYNLYFLDSVTIGNTQAMRAAQGTGVKVIKRKVFLDDSQNEADIRVQFNRAIDLARRNGSTIAIGHPHPSTVRVLQQMVYNLPPDITLVKASSLLNEPQVDTSTPPKNAVPDAPRNPFRGVKLCKPKKPIEPVYANRFFEVLSESISQSTLIVYFQHQWQGWGKQPEAAKFNASAN | soluble |
| MSLKAVYIQKTGGPATIIVGSLPVPKVRPKSVLIKVIAASINYVDLFIRSGIYQTDLPNPYILGRDAIGQVVEIGKDVIQFKVGDCVWTNSMGYDGRQGITSEYALIPEERLFLTPKNADSLKLIGAVHSAATATIVLQDIMELKPKQKLLIEGAAGHVGSKLVYLANEMGAEVVTTASLKDFSRLKQLSDAICFDYRDKSLFKKLKSAYPDGFDHIIDTSGEIPLQFNCDLLAPKGVISLITAPKDSQFDSRQFYMNCQQMKGFVISHASLKQLKKAGRILNDAFRQGQLLEEDMVIKKFDKAAEAHDLMETKKENRKIILVEGHHHHHH | not soluble |
| MMKKILVACGTGMSTSTMIAQKLQDFLAEQGIAATTAQCCLNEIPLNCNGMDLIVTSMRTHSDYGIPTLNGAALLTGINDDALKQEIKALLTQ | not soluble |
| MVEVKPIIIDGHPFIAVSVQLPKTNLLAVAGEKGYIMCGALDVALLNEKLRDRGIIAGRAVGVRTIEQLLEAPLESVTVAALELGIEEGMKGREALLKMR | not soluble |
| MPNSEPASLLELFNSIATQGELVRSLKAGNASKDEIDSAVKMLVSLKMSYKAAAGEDYKADCPPGNPAPTSNHGPDATEAEEDFVDPWTVQTSSAKGIDYDKLIVRFGSSKIDKELINRIERATGQRPHHFLRRGIFFSHRDMNQVLDAYENKKPFYLYTGRGPSSEAMHVGHLIPFIFTKWLQDVFNVPLVIQMTDDEKYLWKDLTLDQAYGDAVENAKDIIACGFDINKTFIFSDLDYMGMSSGFYKNVVKIQKHVTFNQVKGIFGFTDSDCIGKISFPAIQAAPSFSNSFPQIFRDRTDIQCLIPCAIDQDPYFRMTRDVAPRIGYPKPALLHSTFFPALQGAQTKMSASDPNSSIFLTDTAKQIKTKVNKHAFSGGRDTIEEHRQFGGNCDVDVSFMYLTFFLEDDDKLEQIRKDYTSGAMLTGELKKALIEVLQPLIAEHQARRKEVTDEIVKEFMTPRKLAAALEHHHHHH | soluble |
| MSLAAGVLPQNEQPYSTLVNNSECVANMKGNLERPTPKYTKVGERLRHVIPGHMACSMACGGRACKYENPARWSEQEQAIKGVYSSWVTDNILAMARPSSELLEKYHIIDQFLSHGIKTIINLQRPGEHASCGNPLEQESGFTYLPEAFMEAGIYFYNFGWKDYGVASLTTILDMVKVMTFALQEGKVAIHCHAGLGRTGVLIACYLVFATRMTADQAIIFVRAKRPNSIQTRGQLLCVREFTQFLTPLRNIFSCCDPKAHAVTLPQYLIRQRHLLHGYEARLLKHVPKIIHLVCKLLLDLAEEGHHHHHH | not soluble |
| MSLAEYVYTMSRVSKIVPPKRQILKDISLSFFPGAKIGVLGLNGAGKSTLLRIMAGIDKDIDGEARPQPGLKVGYLPQEPKLDESKTVREVVEEAVADVAYALKRLDEVYAAYAEPDADFDALAKEQGELEALIQAKNGHNLDNALERAADALRLPEWDAQVKYLSGGERRRVAICRLLLENPDMLLLDEPTNHLDAESVAWLERFLVDYAGTVVAITHDRYFLDNAAGWILELDRGEGIPWQGNYTSWLEQKDARLKQEASEGHHHHHH | not soluble |
| GYQPEKHAVVKSDRGDGRLLSTYAIVHEMLKDTHPQYAYRSGMSAQEFTQWQDGVRAAMVEIMKFPEIKRQPSPVCVKTEKKEGYILEKWEFYPFPKSVSTFLVLKPEHLKGAVPGVLCIPGSGRTKEGLVGEPGICDKLTEDYNNPKVSMALNMVKEGYVAVAVDNAAAGEASDLECYDKGWNYDYDVVSRFLLELGWSWLGYTSYLDMQVLNWMKAQSYIRKDRIVISGFSLGTEPMMVLGVLDKDIYAFVYNDFLCQTQERAVVMTKPDKENRRPFPNSIRHLIPGYWRYFNFPDVVASLAPRPIIFTEGGLDRDFRLVQSAYAASGKPENAEFHHYPKFADKAVRKDVEHLDEGLDSKTYFEAVNVDPPSHYFKNELVIPWLRKVLK | soluble |
